Values belong to the molecule of their own block, whether it stands above or below them.
Legend:
[1] = biological target: human chymotrypsin C (CTRC) mutant N52S, active enzyme (human) (UniProt Q99895); assay: equilibrium inhibitor binding assay
[2] = biological target: human chymotrypsin C (CTRC), wild type, active enzyme (human) (UniProt Q99895); assay: equilibrium inhibitor binding assay
[3] = active site titration of media with SGPI-2; settings: glycan lost; control: wild type
[4] = steady-state kinetics, purified CTRC; settings: glycan lost; control: wild type (HEK 293T)
[5] = casein digestion time course, SDS-PAGE; settings: glycan lost; control: wild type (HEK 293T)
[6] = Leu81-Glu82 cleavage time course, SDS-PAGE; settings: glycan lost; control: wild type (HEK 293T)
[7] = trypsin-induced mobility shift on reducing SDS-PAGE; settings: glycan lost; control: wild type
[8] = CTRC activity of HEK 293T conditioned media; settings: glycan gained; control: wild type

Kd [1]: 2.7 nM
Kd [2]: 3.9 nM
Molecule: Schistocerca gregaria proteinase inhibitor-2 (SGPI-2) (natural protein)

B1: rat CTRC: N90S (protein)
parent chain: MLGITVLAAILACASCCGNPAFPPNLSTRVVGGEDAVPNSWPWQVSLQYLKDDTWRHTCGGSLITTSHVLTAAHCINKDFTYRVGLGKYNLTVEDEEGSVYAEVDTIYVHEKWNRLFLWNDIAIIKLAEPVELSNTIQVACIPEEGSLLPQDYPCYVTGWGRLWTNGPIAEVLQQGLQPIVSHATCSRLDWWFIKVRKTMVCAGGDGVISACNGDSGGPLNCQAEDGSWQVHGIVSFGSSSGCNVHKKPVVFTRVSAYNDWINEKIQL
expression_or_secretion, other: concentration in medium [3]: decreases, 62.4 vs 175

B2: human chymotrypsin C (CTRC): N52S (protein)
parent chain: MLGITVLAALLACASSCGVPSFPPNLSARVVGGEDARPHSWPWQISLQYLKNDTWRHTCGGTLIASNFVLTAAHCISNTRTYRVAVGKNNLEVEDEEGSLFVGVDTIHVHKRWNALLLRNDIALIKLAEHVELSDTIQVACLPEKDSLLPKDYPCYVTGWGRLWTNGPIADKLQQGLQPVVDHATCSRIDWWGFRVKKTMVCAGGDGVISACNGDSGGPLNCQLENGSWEVFGIVSFGSRRGCNTRKKPVVYTRVSAYIDWINEKMQL
enzymatic_activity, kcat_Km [4]: no change, 1.2 × 106 vs 1.2 × 106
enzymatic_activity [5]: no change
enzymatic_activity [6]: no change
other: proteolytic processing [7]: no change

B3: bovine CTRC: E92T (protein)
parent chain: MLGITVFTTFLAYASSCGAPIFQPNLSARVVGGEDAIPHSWPWQISLQYLRDNTWRHTCGGTLITPNHVLTAAHCISNTLTYRVALGKNNLEVEDEAGSLYVGVDTIFVHEKWNSFLVRNDIALIKLAETVELSDTIQVACLPEEGSLLPQDYPCFVTGWGRLYTNGPIAAELQQGLQPVVDYATCSQRDWWGTTVKETMVCAGGDGVISACNGDSGGPLNCQAENGNWDVRGIVSFGSGLSCNTFKKPTVFTRVSAYIDWINQKLQL
expression_or_secretion, fold_change [8]: no change

Source: article PMC3209518
